Measured values as given in paper doi:10.64898/2025.12.15.690641.

Target: T1, CsubMADS1 (Coccomyxa subellipsoidea C-169, UniProt I0YWG3 1-102)
T1 sequence: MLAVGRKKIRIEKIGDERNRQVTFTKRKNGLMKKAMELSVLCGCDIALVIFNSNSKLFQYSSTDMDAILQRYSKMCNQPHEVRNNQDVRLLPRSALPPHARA
Assay: EMSA

B1: CAB8 CArG probe (dsDNA)
DNA 1: AATTCATCGATCGTTTACTTTTTTTAGAAATATCGATCGG
DNA 2: CCGATCGATATTTCTAAAAAAAGTAAACGATCGATGAATT
binding result: binds

B2: CAB24 CArG probe (dsDNA)
DNA 1: AATTCATCGATCGTTTACAAAAAAAAGAAATATCGATCGG
DNA 2: CCGATCGATATTTCTTTTTTTTGTAAACGATCGATGAATT
binding result: binds
